Experimental data as given in article PMC2600746.

Target: GST-FoxK[414-654] (Drosophila melanogaster, UniProt A0JL24 414-654)
Assay: competition EMSA

B1: GAS (dsDNA)
DNA 1: GCGTCTTTTCCGGGAAATACAT
DNA 2: ATGTATTTCCCGGAAAAGACGC
- binding result: no binding
